The values below come from the supplement of paper PMC9112550, “Optimization of the antimicrobial peptide Bac7 by deep mutational scanning” (BMC Biology, 2022).
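Also: peptides expressed intracellularly from a pBAD plasmid library in pooled LB shake-flask culture, induced with 0.3% L-arabinose, DNA abundance read by NGS, three biological replicates, DESeq2 with apeglm shrinkage.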

This data set deals with Escherichia coli TOP10. The data set can be described thus: shrunken log2 fold change of peptide-encoding DNA abundance (4.5 h post-induction vs induction); higher = less antimicrobial activity (less host growth inhibition). The settings on record: time post-induction: 4.5 h; library: site-saturation at positions 5, 18, 19, 20.
Regarding RRIRLRPPRLPRPRPRPYKEPRP, the “shrunken log2 fold change” value was -0.0365.
On to RRIRDRPPRLPRPRPRPSTKPRP, for which the “shrunken log2 fold change” value came out at 0.116.
On to RRIRERPPRLPRPRPRPGDFPRP, for which the “shrunken log2 fold change” value was -0.107.
The same measure for RRIRDRPPRLPRPRPRPMSYPRP: -0.0376.
Turning to RRIRNRPPRLPRPRPRPPVIPRP, the “shrunken log2 fold change” value is -0.00994.
On to RRIRCRPPRLPRPRPRPDSGPRP, for which the “shrunken log2 fold change” value was 0.0093.
With RRIRNRPPRLPRPRPRPCQDPRP, the “shrunken log2 fold change” value is -0.0893.
Consider RRIRQRPPRLPRPRPRPLVYPRP, for which the “shrunken log2 fold change” value is -0.737.
Take RRIRERPPRLPRPRPRPVIHPRP: the “shrunken log2 fold change” value was -0.106.
With RRIRARPPRLPRPRPRPKDRPRP, the “shrunken log2 fold change” value was 0.145.
With RRIRSRPPRLPRPRPRPKWEPRP, the “shrunken log2 fold change” value stood at 0.274.
Turning to RRIRTRPPRLPRPRPRPYYNPRP, the “shrunken log2 fold change” value is -0.719.
Take RRIRTRPPRLPRPRPRPQIMPRP: the “shrunken log2 fold change” value is -0.337.
Turning to RRIRSRPPRLPRPRPRPADFPRP, the “shrunken log2 fold change” value was -0.0669.
With RRIRARPPRLPRPRPRPVAFPRP, the “shrunken log2 fold change” value was found to be 0.457.
Take RRIRQRPPRLPRPRPRPVVMPRP: the “shrunken log2 fold change” value is 0.0928.
With RRIRIRPPRLPRPRPRPRIIPRP, the “shrunken log2 fold change” value was -0.199.
Turning to RRIRYRPPRLPRPRPRPPSKPRP, the “shrunken log2 fold change” value is -0.409.
Regarding RRIRHRPPRLPRPRPRPAPVPRP, the “shrunken log2 fold change” value was 0.466.
As to RRIRMRPPRLPRPRPRPWSGPRP, the “shrunken log2 fold change” value was -0.0411.
Regarding RRIRVRPPRLPRPRPRPQLHPRP, the “shrunken log2 fold change” value was -0.147.
RRIRERPPRLPRPRPRPRQLPRP: the “shrunken log2 fold change” value is -0.0334.
RRIRERPPRLPRPRPRPRYQPRP: the “shrunken log2 fold change” value is -0.227.
Regarding RRIRNRPPRLPRPRPRPCGIPRP, the “shrunken log2 fold change” value was -0.138.
As to RRIRRRPPRLPRPRPRPCLDPRP, the “shrunken log2 fold change” value is -0.167.
As for RRIRLRPPRLPRPRPRPMERPRP, the “shrunken log2 fold change” value is -0.00192.
For the sequence RRIRVRPPRLPRPRPRPENLPRP, the “shrunken log2 fold change” value is -0.111.
Consider RRIRFRPPRLPRPRPRPNYDPRP, for which the “shrunken log2 fold change” value is -0.866.
As for RRIRFRPPRLPRPRPRPGDNPRP, the “shrunken log2 fold change” value was -0.0236.
As to RRIRRRPPRLPRPRPRPKSSPRP, the “shrunken log2 fold change” value was -0.00897.
For the sequence RRIRVRPPRLPRPRPRPGEEPRP, the “shrunken log2 fold change” value is 0.00621.
Consider RRIRWRPPRLPRPRPRPRIDPRP, for which the “shrunken log2 fold change” value was -0.0323.
Then RRIRHRPPRLPRPRPRPPKSPRP, with 0.398; and RRIRARPPRLPRPRPRPPQCPRP, with 0.585.
Consider RRIRCRPPRLPRPRPRPSLDPRP, for which the “shrunken log2 fold change” value is -0.203.
In the case of RRIRSRPPRLPRPRPRPVRGPRP, the “shrunken log2 fold change” value was found to be 0.573.
RRIRRRPPRLPRPRPRPNEQPRP: the “shrunken log2 fold change” value is 0.324.
Take RRIRWRPPRLPRPRPRPAVPPRP: the “shrunken log2 fold change” value was 0.506.
In the case of RRIRARPPRLPRPRPRPRPQPRP, the “shrunken log2 fold change” value was determined as 0.731.
Take RRIRCRPPRLPRPRPRPFEEPRP: the “shrunken log2 fold change” value was -0.0957.
The same measure for RRIRQRPPRLPRPRPRPDNPPRP: -0.0388.
RRIRFRPPRLPRPRPRPGSIPRP: the “shrunken log2 fold change” value was -0.235.
As to RRIRQRPPRLPRPRPRPGMEPRP, the “shrunken log2 fold change” value was found to be 0.0952.
RRIRTRPPRLPRPRPRPGTQPRP: the “shrunken log2 fold change” value was -0.036.
The same measure for RRIRARPPRLPRPRPRPYFNPRP: -0.71; for RRIRERPPRLPRPRPRPARKPRP: 0.00472; for RRIRGRPPRLPRPRPRPYAAPRP: 0.859.
For the sequence RRIRTRPPRLPRPRPRPKTPPRP, the “shrunken log2 fold change” value was -0.0565.
As for RRIRCRPPRLPRPRPRPDACPRP, the “shrunken log2 fold change” value is 0.175.
Regarding RRIRNRPPRLPRPRPRPYVFPRP, the “shrunken log2 fold change” value was -0.7.
Then RRIRCRPPRLPRPRPRPDETPRP, with -0.0127.
As to RRIRPRPPRLPRPRPRPGHPPRP, the “shrunken log2 fold change” value is -0.12.
For RRIRGRPPRLPRPRPRPNFIPRP, the “shrunken log2 fold change” value was -0.00471.
On to RRIRGRPPRLPRPRPRPAAGPRP, for which the “shrunken log2 fold change” value came to 1.18.
As to RRIRLRPPRLPRPRPRPFQSPRP, the “shrunken log2 fold change” value worked out at 0.0501.
For RRIRFRPPRLPRPRPRPAWKPRP, the “shrunken log2 fold change” value was -0.284.
The same measure for RRIRDRPPRLPRPRPRPRINPRP: 0.0252.
Take RRIRWRPPRLPRPRPRPHDMPRP: the “shrunken log2 fold change” value is -0.202.
As for RRIRFRPPRLPRPRPRPWWWPRP, the “shrunken log2 fold change” value worked out at 0.0474.
On to RRIRNRPPRLPRPRPRPPSQPRP, for which the “shrunken log2 fold change” value stood at 0.16.
RRIRYRPPRLPRPRPRPNFYPRP: the “shrunken log2 fold change” value is -0.689.
Take RRIRKRPPRLPRPRPRPDMMPRP: the “shrunken log2 fold change” value amounted to 1.43.
Turning to RRIRDRPPRLPRPRPRPDSKPRP, the “shrunken log2 fold change” value turned out to be 0.0365.
The same measure for RRIRTRPPRLPRPRPRPSKLPRP: -0.473; for RRIRLRPPRLPRPRPRPHKHPRP: -0.53.
In the case of RRIRARPPRLPRPRPRPINCPRP, the “shrunken log2 fold change” value is -0.0513.
Take RRIRWRPPRLPRPRPRPQPLPRP: the “shrunken log2 fold change” value is -0.0153.
On to RRIRGRPPRLPRPRPRPYLLPRP, for which the “shrunken log2 fold change” value was -0.407.
As to RRIRMRPPRLPRPRPRPTKIPRP, the “shrunken log2 fold change” value was found to be 0.318.
As to RRIRFRPPRLPRPRPRPFPMPRP, the “shrunken log2 fold change” value was -0.0754.
Consider RRIRRRPPRLPRPRPRPFFHPRP, for which the “shrunken log2 fold change” value came out at 0.154.
As for RRIRVRPPRLPRPRPRPCFMPRP, the “shrunken log2 fold change” value is -0.302.
Take RRIRARPPRLPRPRPRPIPKPRP: the “shrunken log2 fold change” value turned out to be 0.394.
For RRIRTRPPRLPRPRPRPHWCPRP, the “shrunken log2 fold change” value is -0.00994.
Take RRIRRRPPRLPRPRPRPLYSPRP: the “shrunken log2 fold change” value was -0.0185.
For RRIRHRPPRLPRPRPRPNNYPRP, the “shrunken log2 fold change” value was -0.857.
As to RRIRCRPPRLPRPRPRPEINPRP, the “shrunken log2 fold change” value came out at 0.122.
Regarding RRIRSRPPRLPRPRPRPISTPRP, the “shrunken log2 fold change” value is -0.102.
With RRIRARPPRLPRPRPRPDPTPRP, the “shrunken log2 fold change” value came to 0.447.
In the case of RRIRYRPPRLPRPRPRPHKQPRP, the “shrunken log2 fold change” value is -0.0853.
RRIRNRPPRLPRPRPRPEDMPRP: the “shrunken log2 fold change” value was -0.0541.
RRIRKRPPRLPRPRPRPWPSPRP: the “shrunken log2 fold change” value was 0.0175.
RRIRCRPPRLPRPRPRPRVSPRP: the “shrunken log2 fold change” value was 0.064.
Turning to RRIRSRPPRLPRPRPRPFYMPRP, the “shrunken log2 fold change” value was -0.561.
RRIRHRPPRLPRPRPRPDTQPRP: the “shrunken log2 fold change” value came to 0.047.
For RRIRFRPPRLPRPRPRPCLMPRP, the “shrunken log2 fold change” value was -0.379.
Take RRIRGRPPRLPRPRPRPTTGPRP: the “shrunken log2 fold change” value is 0.418.
As to RRIRHRPPRLPRPRPRPSKSPRP, the “shrunken log2 fold change” value was -0.143.
The same measure for RRIRLRPPRLPRPRPRPNTAPRP: -0.248.
Then RRIRARPPRLPRPRPRPVNLPRP, with 0.0654; and RRIRERPPRLPRPRPRPEFSPRP, with -0.178.
